Molecular target: recombinant human EGFR/ErbB1 Fc chimera (rhEGFR) (human, UniProt P00533 25-645)
Assay: SPR

B1: E07 anti-EGFR aptamer (structured_RNA)
RNA: GGCGCUCCGACCUUAGUCUCUGUGCCGCUAUAAUGCACGGAUUUAAUCGCCGUAGAAAAGCAUGUCAAAGCCGGAACCGUGUAGCACAGCAGAGAAUUAAAUGCCCGCCAUGACCAG
modifications: 2'-fluoropyrimidine
Kd: 112 nM

— publication PMC4046795
